We go through two substances from PMC4798592.

Conditions in all cases: EMSA: 20 mM phosphate pH 8.0, 100 mM NaCl, 5% glycerol, with or without TX-100, 0.1 nM 32P-DNA, 20 min on ice, 6% native PAGE
On the technique in general: In EMSA bound probe runs differently from free probe, usually more slowly.

Series [1] concerns the target T1, rSarA (Staphylococcus aureus) (UniProt A6QES8).
T1 sequence: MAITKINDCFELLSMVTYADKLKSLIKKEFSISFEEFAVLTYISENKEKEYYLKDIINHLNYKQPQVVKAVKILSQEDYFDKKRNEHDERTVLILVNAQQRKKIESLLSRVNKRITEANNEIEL
As to the kind of experiment: DNase I footprinting.

Series [2] concerns C9W (rSarA C9W) (Staphylococcus aureus). In words: EMSA.
Series [3] shares this test system. As to the kind of experiment: EMSA. The source holds these as a separate data set.
Series [4] concerns rSarA (Staphylococcus aureus). In words: EMSA.
In series [5] the test system is rSarA (Staphylococcus aureus). As to the kind of experiment: EMSA. The source holds these as a separate data set.
Series [6] relates to C9W (rSarA C9W) (Staphylococcus aureus). In words: EMSA. The source holds these as a separate data set.
Series [7] has as its system rSarA (Staphylococcus aureus). As to the kind of experiment: EMSA. The source holds these as a separate data set.
In series [8] the test system is C9W (rSarA C9W) (Staphylococcus aureus). As to the kind of experiment: EMSA. This is another data set of the same source.
In series [9] the test system is rSarA (Staphylococcus aureus). In words: EMSA. The source holds these as a separate data set.

In the case of “CTATTAGATATTTCTATGTAATGGCAAAATTTATTCCCGACGAAATTCCAAACATAATTAATACCCTTTTTCTCTATTTCTATTTATTAATTTACACTAGTTAATATATAGTTAATTTTTATTTAATAGTTAATTAATTGATTTAATTCTAAGATATTTGTATTTTTATATTGTAATCGATTACATTTTTAAATCAAACAAATCATTAGTTTTAAAGAAATTAATCAATAAAATTAGCTATGT (double strand) [hla promoter DNA, bottom strand labelled (footprinting)]”, in series [1], the binding entry is “binds”.
The Kd is the equilibrium constant for the complex coming apart. Regarding hla promoter DNA, the Kd came to 60 nM in [2]; 58 nM in [3]; 50 nM in series [4]; 364 nM in series [5]; 398 nM in series [6]; 35 nM in series [7]. Further, the Kd in series [8] was found to be 97 nM; in series [9] it was 20 nM.
